Assay results reported in paper PMC6054930 (Frontiers in Immunology, 2018).

Target: T1, hPD-L1-Fc (human, UniProt Q9NZQ7 19-238)
T1 construct: human programmed death-ligand 1 (PD-L1, CD274, B7-H1); also called programmed death-ligand 1; CD274; source: bought: tebu-bio/BPS Bioscience, #71104
Assay: ELISA; competitive: hPD-L1-Fc coated on the plate; test antibodies in presence of 1 µg/ml PD-1-Biotin or 0.5 µg/ml CD80-Biotin; detected with streptavidin-POD
Conditions: both partners purified

T1 sequence (Q9NZQ7 19-238): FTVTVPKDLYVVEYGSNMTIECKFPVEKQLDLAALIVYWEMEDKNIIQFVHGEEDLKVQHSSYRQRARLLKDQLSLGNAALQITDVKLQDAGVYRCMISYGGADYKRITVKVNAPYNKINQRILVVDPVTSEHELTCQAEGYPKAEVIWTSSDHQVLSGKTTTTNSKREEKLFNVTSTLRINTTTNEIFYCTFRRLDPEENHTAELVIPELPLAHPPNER

binding result: binds
B1: CD80-Biotin (ligand, human, UniProt P33681 35-242, looked up)
chain: VIHVTKEVKEVATLSCGHNVSVEELAQTRIYWQKEKKMVLTMMSGDMNIWPEYKNRTIFDITNNLSIVILALRPSDEGTYECVVLKYEKDAFKREHLAEVTLSVKADFPTPSISDFEIPTSNIRRIICSTSGGFPEPHLSWLENGEELNAINTTVSQDPETELYAVSSKLDFNMTTNHSFMCLIKYGHLRVNQTFNWNTTKQEHFPDN
modifications: biotin
notes: The vendor's product may carry an Fc part; also called B7-1; soluble CD80; source: bought: tebu-bio/BPS Bioscience, #71114
